The record followed here is patent US20100150931A1 (CENTRE HOSPITALIER DE L UNIVERSITE DE MONTREAL, published 2010).

Assay [1] addresses T1, α5β1 integrin on cells (U937 and other CD40-negative cell lines) (human, UniProt P08648 42-1049; P05556 21-798).
T1 construct: whole, on cells; U937 cells are CD40-negative; also called VLA-5; CD49e/CD29
As to the kind of experiment: flow cytometry, competition with sCD40L-Alexa on U937 cells.

The target in assay [2] is T2, CD40 on BJAB B cells (human, UniProt P25942 21-277).
T2 construct: whole, on cells; also called CD40-positive human BJAB B cell line
Description: flow cytometry, competition with sCD40L-Alexa on BJAB cells.

The target in assay [3] is T1, α5β1 integrin on cells (U937 and other …). Description: cell-based or functional assay.

T1 sequence (P08648 42-1049, chain 1 of 2): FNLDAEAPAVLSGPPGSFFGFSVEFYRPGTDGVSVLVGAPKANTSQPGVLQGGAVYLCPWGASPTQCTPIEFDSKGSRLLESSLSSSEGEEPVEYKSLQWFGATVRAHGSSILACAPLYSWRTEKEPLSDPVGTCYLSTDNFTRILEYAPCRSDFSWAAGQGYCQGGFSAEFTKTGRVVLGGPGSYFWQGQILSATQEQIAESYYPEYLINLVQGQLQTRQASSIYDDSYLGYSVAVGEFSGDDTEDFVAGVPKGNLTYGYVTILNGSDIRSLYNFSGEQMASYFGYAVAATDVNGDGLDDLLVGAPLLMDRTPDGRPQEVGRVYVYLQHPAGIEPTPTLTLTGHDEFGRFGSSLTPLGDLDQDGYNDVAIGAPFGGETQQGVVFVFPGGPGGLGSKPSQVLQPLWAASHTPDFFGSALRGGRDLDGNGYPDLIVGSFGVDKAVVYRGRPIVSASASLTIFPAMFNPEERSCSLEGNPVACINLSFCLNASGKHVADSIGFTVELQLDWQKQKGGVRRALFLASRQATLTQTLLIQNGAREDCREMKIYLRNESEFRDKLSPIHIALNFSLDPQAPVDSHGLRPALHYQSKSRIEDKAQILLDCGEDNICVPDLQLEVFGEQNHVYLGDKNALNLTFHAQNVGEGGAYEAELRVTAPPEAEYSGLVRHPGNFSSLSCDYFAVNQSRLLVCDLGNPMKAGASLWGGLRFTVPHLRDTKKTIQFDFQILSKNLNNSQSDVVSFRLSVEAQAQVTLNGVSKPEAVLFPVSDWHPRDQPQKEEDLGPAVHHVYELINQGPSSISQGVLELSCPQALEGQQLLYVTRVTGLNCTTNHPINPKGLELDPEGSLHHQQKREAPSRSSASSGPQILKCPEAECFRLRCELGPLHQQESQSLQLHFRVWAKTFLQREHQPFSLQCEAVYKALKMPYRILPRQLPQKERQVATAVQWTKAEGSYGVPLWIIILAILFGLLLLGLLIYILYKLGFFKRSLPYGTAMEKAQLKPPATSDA
T1 sequence (P05556 21-798, chain 2 of 2): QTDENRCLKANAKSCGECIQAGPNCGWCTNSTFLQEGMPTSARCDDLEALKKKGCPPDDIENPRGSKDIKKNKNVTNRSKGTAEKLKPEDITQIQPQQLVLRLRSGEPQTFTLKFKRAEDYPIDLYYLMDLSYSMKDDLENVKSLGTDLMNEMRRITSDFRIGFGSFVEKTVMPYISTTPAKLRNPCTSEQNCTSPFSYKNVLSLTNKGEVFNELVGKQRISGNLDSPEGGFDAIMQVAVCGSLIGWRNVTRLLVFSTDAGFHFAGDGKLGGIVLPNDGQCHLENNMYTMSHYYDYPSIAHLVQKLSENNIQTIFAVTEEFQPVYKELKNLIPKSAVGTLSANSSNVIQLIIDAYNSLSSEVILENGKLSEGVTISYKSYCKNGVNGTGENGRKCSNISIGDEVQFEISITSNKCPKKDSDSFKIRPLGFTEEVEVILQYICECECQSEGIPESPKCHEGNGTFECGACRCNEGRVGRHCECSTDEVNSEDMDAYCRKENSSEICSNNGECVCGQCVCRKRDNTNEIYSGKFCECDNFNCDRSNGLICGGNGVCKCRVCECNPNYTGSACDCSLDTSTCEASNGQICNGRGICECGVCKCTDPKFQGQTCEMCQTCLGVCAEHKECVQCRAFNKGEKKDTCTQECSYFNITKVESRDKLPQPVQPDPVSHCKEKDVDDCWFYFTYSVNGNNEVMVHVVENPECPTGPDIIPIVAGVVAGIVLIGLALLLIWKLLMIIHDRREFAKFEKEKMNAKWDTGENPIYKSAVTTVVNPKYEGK
T2 sequence (P25942 21-277): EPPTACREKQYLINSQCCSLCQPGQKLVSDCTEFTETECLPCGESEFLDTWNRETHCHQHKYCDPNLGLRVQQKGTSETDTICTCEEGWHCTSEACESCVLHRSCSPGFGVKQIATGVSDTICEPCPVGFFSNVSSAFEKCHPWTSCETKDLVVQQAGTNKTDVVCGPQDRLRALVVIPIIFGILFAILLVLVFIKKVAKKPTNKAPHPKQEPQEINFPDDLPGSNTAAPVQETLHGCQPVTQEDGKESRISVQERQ

B1: CD40L Y170A (monomeric soluble human CD40L mutant) (ligand)
chain: MQKGDQNPQIAAHVISEASSKTTSVLQWAEKGYYTMSNNLVTLENGKQLTVKRQGLYAIYAQVTFCSNREASSQAPFIASLCLKSPGRFERILLRAANTHSSAKPCGQQSIHLGGVFELQPGASVFVNVTDPSQVSHGTGFTSFGLLKL
notes: Made in Drosophila S2 cells from the soluble human CD40L construct M113 to L261 with Y170 changed to alanine; Numbering of Y170 is that of full-length human CD40L; also called hsCD40LY170A; hCD40L mutated in its Y170 residue; not shown: C-terminal V5 / hexahistidine tag from the pMT-BiP/V5-His A vector
As for B1, the binding result in assay [1] and in assay [2] was “binds” in each case.

B2: CD40L G227A (monomeric soluble human CD40L mutant) (ligand)
chain: MQKGDQNPQIAAHVISEASSKTTSVLQWAEKGYYTMSNNLVTLENGKQLTVKRQGLYYIYAQVTFCSNREASSQAPFIASLCLKSPGRFERILLRAANTHSSAKPCGQQSIHLGAVFELQPGASVFVNVTDPSQVSHGTGFTSFGLLKL
notes: Made in Drosophila S2 cells from the soluble human CD40L construct M113 to L261 with G227 changed to alanine; also called hCD40L mutated in its G227 residue; not shown: C-terminal V5 / hexahistidine tag from the pMT-BiP/V5-His A vector
For the molecule B2, the binding result in assay [1] and in assay [2] was “binds” throughout.

B3: Recombinant trimeric soluble CD40L (ligand, UniProt P29965 51-261, looked up)
chain: DKIEDERNLHEDFVFMKTIQRCNTGERSLSLLNCEEIKSQFEGFVKDIMLNKEETKKENSFEMQKGDQNPQIAAHVISEASSKTTSVLQWAEKGYYTMSNNLVTLENGKQLTVKRQGLYYIYAQVTFCSNREASSQAPFIASLCLKSPGRFERILLRAANTHSSAKPCGQQSIHLGGVFELQPGASVFVNVTDPSQVSHGTGFTSFGLLKL
modifications: Alexa Fluor-488 label in the form called rsCD40L-A; unlabelled in the solid phase assay and in cell stimulation
B3: the “IL-8 mRNA expression (RT-PCR, U937 cells)” value in assay [3] was 2.5 fold increase.
